Results as given in patent US20030219386.

Target: soluble recombinant uPAR (suPAR), expressed in Drosophila S2 cells (UniProt Q03405)
Sequence (Q03405 23-299): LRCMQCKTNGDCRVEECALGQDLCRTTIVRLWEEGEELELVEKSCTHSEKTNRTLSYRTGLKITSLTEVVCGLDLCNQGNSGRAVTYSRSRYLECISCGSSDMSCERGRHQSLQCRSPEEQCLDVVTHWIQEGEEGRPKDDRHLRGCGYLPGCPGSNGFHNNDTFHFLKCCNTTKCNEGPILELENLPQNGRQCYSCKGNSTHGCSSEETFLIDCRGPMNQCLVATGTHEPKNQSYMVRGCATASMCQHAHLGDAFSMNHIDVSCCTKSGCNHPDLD

recombinant human single chain urokinase plasminogen activator (scuPA), wild-type, aa1-411 of the mature human sequence, expressed in Drosophila S2 cells
activity of scuPA in complex with suPAR: scuPA prepared in this manner was active in complex with suPAR as well as when activated by plasmin
